Measured values taken from publication PMC8303780, “Mutational Analysis of Redβ Single Strand Annealing Protein: Roles of the 14 Lysine Residues in DNA Binding and Recombination In Vivo”.
Numbering of substitutions follows the chain as printed.

How the values were obtained:
Test in all cases: EMSA; strands added sequentially; Anisotropy: 50 mM Tris-HCl pH 7.5, 1 mM DTT, 0.1 mg/mL BSA, 10 nM FAM48, 23 °C (Kd per monomer); gel assay: 10 µM Redβ, 50 µM nt of each oligo, PBS, 37 °C, 1% agarose at 22 °C
Conditions in all cases: protein: recombinant; tags: 6xHis removed by thrombin; residual N-terminal GSH; label: 5'-Cy3 and 5'-Cy5; complementary 50-mers; annealed by protein
Redβ K11A = target: T1, Redβ K11A (bacteriophage λ, UniProt P03698 1-261, K11A)
T1 sequence: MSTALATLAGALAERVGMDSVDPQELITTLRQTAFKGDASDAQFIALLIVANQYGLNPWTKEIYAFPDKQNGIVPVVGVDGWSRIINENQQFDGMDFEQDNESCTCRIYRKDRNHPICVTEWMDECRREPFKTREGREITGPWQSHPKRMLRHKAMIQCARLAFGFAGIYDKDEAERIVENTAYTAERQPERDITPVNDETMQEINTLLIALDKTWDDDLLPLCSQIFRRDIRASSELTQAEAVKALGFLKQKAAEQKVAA

Redβ K214A = target: T2, Redβ K214A (bacteriophage λ, UniProt P03698 1-261, K214A)
T2 sequence: T1 sequence with A11K, K214A

Redβ K245A = target: T3, Redβ K245A (bacteriophage λ, UniProt P03698 1-261, K245A)
T3 sequence: T1 sequence with A11K, K245A

Redβ K69A = target: T4, Redβ K69A (bacteriophage λ, UniProt P03698 1-261, K69A)
T4 sequence: T1 sequence with A11K, K69A

Redβ WT = target: T5, Redβ WT (bacteriophage λ, UniProt P03698 1-261)
T5 sequence: T1 sequence with A11K

Redβ K36A = target: T6, Redβ K36A (bacteriophage λ, UniProt P03698 1-261, K36A)
T6 sequence: T1 sequence with A11K, K36A

Measured: binding result

B1: annealed duplex of Cy3 and Cy5 50-mers, strands added sequentially (dsDNA)
DNA 1: GCGGATGGCTTAGAGCAGAATCGCCCTGCATAGCTCGATTTTTGCGGATG
DNA 2: CCATCCGCAAAAATCGAGCTATGCAGGGCGATTCTGCTCTAAGCCATCCG
binds: all assays above
